Consider 42 molecules from patent US10487147B2, “Anti-PD-L1 antibodies and uses thereof” (Merck Patent GmbH, priority 2011, dated 2019).

System in one series: not listed separately
Description: Fluorescence monitored thermal unfolding assay of wild type and mutant PD-L1 proteins. Particulars: temperature midpoint of fluorescently monitored thermal denaturation of the PD-L1 antigen protein. The format is physicochemical. The text has this: As the temperature increases, thermal denaturation of the protein exposes the hydrophobic core residues and this can be monitored by an increase in fluorescence of the dye. […] The data ware fit to equation 1 (adapted from Bullock, A. N. et al. Thermodynamic stability of wild-type and mutant p53 core domain. PNAS 94, 14338-14342 (1997)) to determine the temperature at the inflection point of the curve (T1/2).
For the molecule “S79A: PD-L1 point mutant antigen expressed in HEK cells [Antibody S79A]”, the T1/2 was 56.3 +/− 0.9 °C.
Regarding “S80E: PD-L1 point mutant antigen expressed in HEK cells [Antibody S80E]”, the T1/2 was 56.8 +/− 4.5 °C.
As for “R125A: PD-L1 point mutant antigen expressed in HEK cells [Antibody R125A]”, the T1/2 was 51.8 +/− 0.2 °C.
As to “K105A: PD-L1 point mutant antigen expressed in HEK cells [Antibody K105A]”, the T1/2 was 57.0 +/− 1.5 °C.
On to “D73A: PD-L1 point mutant antigen expressed in HEK cells [Antibody D73A]”, for which the T1/2 is 53.5 +/− 2.1 °C.
On the same count and under the same terms, next, “T20A: PD-L1 point mutant antigen expressed in HEK cells [Antibody T20A]”: 52.5 +/− 0.2 °C.
Regarding “I54A: PD-L1 point mutant antigen expressed in HEK cells [Antibody I54A]”, the T1/2 is 57.2 +/− 2.5 °C.
Same read-out and setting: the value for “V111A: PD-L1 point mutant antigen expressed in HEK cells [Antibody V111A]” was 50.2 +/− 0.2 °C; that for “E60A: PD-L1 point mutant antigen expressed in HEK cells [Antibody E60A]” was 50.4 °C; that for “V111E: PD-L1 point mutant antigen expressed in HEK cells [Antibody V111E]” was 51.6 +/− 0.0 °C.
As for “D26A: PD-L1 point mutant antigen expressed in HEK cells [Antibody D26A]”, the T1/2 is 52.8 +/− 0.2 °C.
“R82A: PD-L1 point mutant antigen expressed in HEK cells [Antibody R82A]”: the T1/2 is 51.2 +/− 0.4 °C.
As for “H78A: PD-L1 point mutant antigen expressed in HEK cells [Antibody H78A]”, the T1/2 is 56.6 +/− 0.6 °C.
On the same count and under the same terms, the value for “A51Q: PD-L1 point mutant antigen expressed in HEK cells [Antibody A51Q]” was 57.3 +/− 0.6 °C; that for “A52R: PD-L1 point mutant antigen expressed in HEK cells [Antibody A52R]” was 55.2 °C; that for “D61A: PD-L1 point mutant antigen expressed in HEK cells [Antibody D61A]” was 52.0 °C.
As to “K129A: PD-L1 point mutant antigen expressed in HEK cells [Antibody K129A]”, the T1/2 was 50.8 +/− 1.2 °C.
“K75A: PD-L1 point mutant antigen expressed in HEK cells [Antibody K75A]”: the T1/2 is 57.7 +/− 1.8 °C.
The molecule “I54K: PD-L1 point mutant antigen expressed in HEK cells [Antibody I54K]” had a T1/2 of 57.2 °C.
On the same count and under the same terms, the value for “A121R: PD-L1 point mutant antigen expressed in HEK cells [Antibody A121R]” was 54.0 +/− 0.5 °C; that for “K46A: PD-L1 point mutant antigen expressed in HEK cells [Antibody K46A]” was 51.6 °C.
On to “Y56A: PD-L1 point mutant antigen expressed in HEK cells [Antibody Y56A]”, for which the T1/2 is 57.5 +/− 0.7 °C.
Same read-out and setting: next, “E58A: PD-L1 point mutant antigen expressed in HEK cells [Antibody E58A]”: 54.6 +/− 0.6 °C.
Same read-out and setting: the value for “E45A: PD-L1 point mutant antigen expressed in HEK cells [Antibody E45A]” was 58.0 °C; that for “S117A: PD-L1 point mutant antigen expressed in HEK cells [Antibody S117A]” was 52.7 +/− 0.3 °C.
“V76A: PD-L1 point mutant antigen expressed in HEK cells [Antibody V76A]” yielded a T1/2 of 55.7 °C.
Same read-out and setting: the value for “A109E: PD-L1 point mutant antigen expressed in HEK cells [Antibody A109E]” was 54.0 °C; that for “T127A: PD-L1 point mutant antigen expressed in HEK cells [Antibody T127A]” was 51.4 +/− 0.0 °C; that for “S80A: PD-L1 point mutant antigen expressed in HEK cells [Antibody S80A]” was 57.0 °C.
Consider “E71A: PD-L1 point mutant antigen expressed in HEK cells [Antibody E71A]”, for which the T1/2 is 52.8 +/− 1.5 °C.
Take “T127K: PD-L1 point mutant antigen expressed in HEK cells [Antibody T127K]”: the T1/2 turned out to be 54.0 °C.
With “M115A: PD-L1 point mutant antigen expressed in HEK cells [Antibody M115A]”, the T1/2 was 51.4 +/− 0.1 °C.
Still for that read-out and setting: next, “R113A: PD-L1 point mutant antigen expressed in HEK cells [Antibody R113A]”: 56.7 °C; “V68R: PD-L1 point mutant antigen expressed in HEK cells [Antibody V68R]”: 56.0 °C.
On the same count and under the same terms, next, “D49A: PD-L1 point mutant antigen expressed in HEK cells [Antibody D49A]”: “BP (>49) ° C”; “S79E: PD-L1 point mutant antigen expressed in HEK cells [Antibody S79E]”: 60.0 °C; “K124A: PD-L1 point mutant antigen expressed in HEK cells [Antibody K124A]”: 53.1 +/− 0.6 °C.
Still for that read-out and setting: the value for “L27A: PD-L1 point mutant antigen expressed in HEK cells [Antibody L27A]” was 51.7 +/− 0.5 °C.
On to “Q107A: PD-L1 point mutant antigen expressed in HEK cells [Antibody Q107A]”, for which the T1/2 was 58.6 +/− 2.0 °C.
Consider “Y56K: PD-L1 point mutant antigen expressed in HEK cells [Antibody Y56K]”, for which the T1/2 was 55.4 +/− 1.3 °C.

System in the next series: not listed separately
Description: Analytical size exclusion chromatography of wild type and mutant PD-L1 proteins. The format is physicochemical. The conditions noted are these: qualitative appearance of the PD-L1 antigen protein on size exclusion chromatography. (In gel filtration, larger molecules generally elute earlier.)
As for “V68R: PD-L1 point mutant antigen expressed in HEK cells [Antibody V68R]”, the SEC entry was “M/T”.
Still for that read-out and setting: next, “Q107A: PD-L1 point mutant antigen expressed in HEK cells [Antibody Q107A]”: “M/T”.

In another series the test system is PANC02 cells. Description: Combination with Gemcitabine in the PANC02 orthotopic model. Particulars: GEM 150 mg/kg or A09-246-2 400 μg per mouse alone.
With `Nc1ccn([C@@H]2O[C@H](CO)[C@@H](O)C2(F)F)c(=O)n1` [GEM, Gemcitabine], the “survival time, monotherapy” value is “failed to extend survival time”.

For a further series, the system named is MC38 colon carcinoma cells. Description: Combination with low dose cyclophosphamide in MC38 subcutaneous tumor model. The format is in vivo, mice. Particulars: CPA 100 mg/kg or A09-246-2 100 μg. The procedure: Low-dose CPA is known to enhance anti-tumor immune responses through the inhibition of immunosuppressive regulatory T cells. […] Mice were inoculated […] in the right flank with 1×10^6 MC38 colon carcinoma cells. When tumors reached a mean volume of ˜50 mm^3, mice were sorted into treatment groups (N=14) on day 0. […] Using an ELISPOT assay, the effects of treatment on the magnitude of CD8^+ T cell responses directed against the well-characterized p15E tumor antigen were measured.
In the case of `O=P1(N(CCCl)CCCl)NCCCO1` (centres unmarked) [CPA, cyclophosphamide], the “p15E-reactive CD8+ T cells (ELISPOT), single agent” value is listed as roughly 100 spots.
